For assay [1], the target named is T1, Recombinant Human ErbB3/FC Chimera-His tag (human, UniProt P21860 20-643).
T1 construct: bought reagent
The assay is described as follows: SPR (Biacore), C-terminal VD.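 Note: surface plasmon resonance with DVD-Ig proteins captured on an anti-IgG chip and recombinant antigen flowed over in HBS-EP buffer, Langmuir global fit, KD taken as koff/kon.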

Assay [2] addresses T2, Recombinant Human MSP Receptor ECD-His tag (human, UniProt Q04912 25-957).
T2 construct: extracellular domain; bought reagent; also called RON
As to the kind of experiment: SPR (Biacore), N-terminal VD.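 Note: capture of antibodies or DVD-Ig proteins on an anti-mouse IgG chip surface, recombinant antigen injected at 10–200 nM in HBS-EP running buffer at 25 °C.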
Procedure: The BIACORE assay (Biacore, Inc, Piscataway, N.J.) determined the affinity of antibodies or DVD-Ig proteins with kinetic measurements of on-rate and off-rate constants. Binding of antibodies or DVD-Ig proteins to a target antigen (for example, a purified recombinant target antigen) was determined by surface plasmon resonance-based measurements with a Biacore® 1000 or 3000 instrument (Biacore AB, Uppsala. Sweden) using running HBS-EP (10 mM HEPES [pH 7.4], 150 mM NaCl, 3 mM EDTA, and 0.005% surfactant P20) at 25° C. […] For example, approximately 5000 RU of goat anti-mouse IgG, (Fcγ), fragment specific polyclonal antibody (Pierce Biotechnology Inc, Rockford, Ill.) diluted in 10 mM sodium acetate (pH 4.5) was directly immobilized across a CM5 research grade biosensor chip using a standard amine coupling kit according to manufacturer's instructions and procedures at 25 μg/ml. Unreacted moieties on the biosensor surface were blocked with ethanolamine. Modified carboxymethyl dextran surface in flowcell 2 and 4 was used as a reaction surface. Unmodified carboxymethyl dextran without goat anti-mouse IgG in flow cell 1 and 3 was used as the reference surface. For kinetic analysis, rate equations derived from the 1:1 Langmuir binding model were fitted simultaneously to association and dissociation phases of all eight injections (using global fit analysis) with the use of Biaevaluation 4.0.1 software. Purified antibodies or DVD-Ig proteins were diluted in HEPES-buffered saline for capture across goat anti-mouse IgG specific reaction surfaces. Antibodies or DVD-Ig proteins to be captured as a ligand (25 μg/ml) were injected over reaction matrices at a flow rate of 5 μl/minute. The association and dissociation rate constants, kₒₙ (M⁻¹s⁻¹) and koff (s⁻¹) were determined under a continuous flow rate of 25 μl/minute. Rate constants were derived by making kinetic binding measurements at different antigen concentrations ranging from 10-200 nM. The equilibrium dissociation constant (M) of the reaction between antibodies or DVD-Ig proteins and the target antigen was then calculated from the kinetic rate constants by the following formula: KD=koff/kₒₙ. Binding was recorded as a function of time and kinetic rate constants were calculated.

The target of assay [3] is T3, ErbB3 on the cell surface (human, UniProt P21860 20-1342).
T3 construct: whole, on cells
The assay is described as follows: flow cytometry on cells, 2 ug/mL.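 Note: cells stained for 30 to 60 min on ice.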
Procedure: (§1) Stable cell lines overexpressing a cell-surface antigen of interest or human tumor cell lines were harvested from tissue culture flasks and resuspended in phosphate buffered saline (PBS) containing 5% fetal bovine serum (PBS/FBS). Prior to staining, human tumor cells were incubated on ice with (100 μl) human IgG at 5 μg/ml in PBS/FCS. 1-5×10⁵ cells were incubated with antibody or DVD-Ig (2 μg/mL) in PBS/FBS for 30-60 minutes on ice. […] After 30 minutes incubation on ice, cells were washed twice and resuspended in PBS/FBS. Fluorescence was measured using a Becton Dickinson FACSCalibur (Becton Dickinson, San Jose, Calif.).
(§2) The geometric mean is the n root of the multiplication product of n fluorescent signals (a1×a2×a3 . . . an). With log-transformed data the geometric mean is used to normalize the weighting of the data distribution.

Assay [4] deals with T4, EGFR on the cell surface (human, UniProt P00533 25-1210).
T4 construct: whole, on cells
The assay is described as follows: flow cytometry on cells, 2 ug/mL, N-terminal VD.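 Note: cells stained for 30 to 60 min on ice.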
Procedure: as §1, §2

The target in assay [5] is T3, ErbB3 on the cell surface. The assay is described as follows: flow cytometry on cells, 2 ug/mL, C-terminal VD.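 Note: cells stained for 30 to 60 min on ice.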
Procedure: as §1, §2

B1: DVD2332 (bispecific antibody)
VH: QVQLQESGPGLVKPSEILSLTCTVSGGSISSHYWSWVRQPPGKGLEWIGYIYYSGSTNYNPSLKSRVTISVDTSKNQFSLNLSSVTAADTAVYYCARIPNYYDRSGYYPGYWYFDLWGRGTLVTVSSASTKGPEVQLLESGGGLVQPGGSLRLSCAASGFTFSHYVMAWVRQAPGKGLEWVSSISSSGGWTLYADSVKGRFTISRDNSKNTLYLQMNSLRAEDTAVYYCTRGLKMATIFDYWGQGTLVTVSS
VL: QAVLTQPSSLSAPPGASASLTCTLRSGFNVDSYRISWYQQKPGSPPQYLLRYKSDSDKQQGSGVPSRFSGSKDASANAGILLISGLQSEDEADYYCMIWHSSAWVFGGGTKLTVLRQPKAAPQSALTQPASVSGSPGQSITISCTGTSSDVGSYNVVSWYQQHPGKAPKLIIYEVSQRPSGVSNRFSGSKSGNTASLTISGLQTEDEADYYCCSYAGSSIFVIFGGGTKVTVL
notes: DVD-Ig, outer AB034 / inner AB116
Turning to B1, the binding result in assay [1] and in assay [2] was “no binding (tested: 10-200 nM)” throughout.

B2: DVD2318 (bispecific antibody)
VH: EVQLVQSGGGLVKPGGSLRLSCAASGFTFSSYAMHWVRQAPGKGLEWVAVISYDGSNKYYADSVKGRFTISRDNSKNTLYLQMNSLRAEDTAVYYCARFSGWPNNYYYYGMDVWGQGTTVTVSSASTKGPEVQLVESGGGLVQPGGSLRLSCAASGFTFSIYSMNWVRQAPGKGLEWVSYISSSSSTIYYADSVKGRFTISRDNAKNSLYLQMNSLRDEDTAVYYCARDRGDFDAFDIWGQGTMVTVSS
VL: DVVMTQSPLSLPVTPGEPASISCRSSQSLLHSNGFNYVDWYLQKPGQSPHLLIYFGSYRASGVPDRFSGSGSGTDFTLKISRVEAEDVGVYYCMQALQTPPWTFGQGTKVEIRRTVAAPDIQMTQSPSSLSASVGDRVTITCQASQDITNYLNWYQQKPGKAPKLLIYDASNLETGVPSRFSGSGSGTDFTFTISSLQPEDIATYNCQQCENFPITFGQGTRLEIK
notes: DVD-Ig, outer AB005 / inner AB063
As for B2, the binding result in assay [1] was “no binding (tested: 10-200 nM)”. Further, in assay [2], the Kd came to 17 nM, the koff was 0.00092 s⁻¹ and the kon came to 55000 M⁻¹ s⁻¹.

B3: DVD2322 (bispecific antibody)
VH: EVQLVQSGGGLVKPGGSLRLSCAASGFTFSSYAMHWVRQAPGKGLEWVAVISYDGSNKYYADSVKGRFTISRDNSKNTLYLQMNSLRAEDTAVYYCARFSGWPNNYYYYGMDVWGQGTTVTVSSASTKGPQVQLQQWGAGLLKPSETLSLTCAVYGGSFSGYYWSWIRQPPGKGLEWIGEINHSGSTNYNPSLKSRVTISVETSKNQFSLKLSSVTAADTAVYYCARDKWTWYFDLWGRGTLVTVSS
VL: DVVMTQSPLSLPVTPGEPASISCRSSQSLLHSNGFNYVDWYLQKPGQSPHLLIYFGSYRASGVPDRFSGSGSGTDFTLKISRVEAEDVGVYYCMQALQTPPWTFGQGTKVEIRRTVAAPDIEMTQSPDSLAVSLGERATINCRSSQSVLYSSSNRNYLAWYQQNPGQPPKLLIYWASTRESGVPDRFSGSGSGTDFTLTISSLQAEDVAVYYCQQYYSTPRTFGQGTKVEIK
notes: DVD-Ig, outer AB005 / inner AB062
With B3, in assay [1], the binding result is recorded as “no binding (tested: 10-200 nM)”. Moreover, in assay [2], the Kd was 17 nM, the koff turned out to be 0.00087 s⁻¹ and the kon turned out to be 51000 M⁻¹ s⁻¹.

B4: AB062 (antibody, V domains shown)
VH: QVQLQQWGAGLLKPSETLSLTCAVYGGSFSGYYWSWIRQPPGKGLEWIGEINHSGSTNYNPSLKSRVTISVETSKNQFSLKLSSVTAADTAVYYCARDKWTWYFDLWGRGTLVTVSS
VL: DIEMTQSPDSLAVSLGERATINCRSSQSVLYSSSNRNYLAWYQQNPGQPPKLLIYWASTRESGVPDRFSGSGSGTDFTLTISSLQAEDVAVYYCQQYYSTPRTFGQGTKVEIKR
notes: parent antibody
In the case of B4, the “GEO MEAN” value in assay [3] is 132.

B5: DVD2292 (bispecific antibody)
VH: EVQLVESGGGLVQPGGSLRLSCAASGFSLTNYGVHWVRQAPGKGLEWLGVGWSGGNTDYNTPFTSRLTINKDNSKNTVYLQMNSLRAEDTAVYYCARALTWYDYEFAYWGQGTLVTVSSASTKGPEVQLVESGGGLVQPGGSLRLSCAASGFTFSIYSMNWVRQAPGKGLEWVSYISSSSSTIYYADSVKGRFTISRDNAKNSLYLQMNSLRDEDTAVYYCARDRGDFDAFDIWGQGTMVTVSS
VL: DILLTQSPGTLSLSPGERATLSCRASQSIYTNIHWYQQKPGQAPRLLIKYASESISGIPDRFSGSGSGTDFTLTISRLEPEDFAVYYCQQNLNWPTTFGQGTKLEIKRTVAAPDIQMTQSPSSLSASVGDRVTITCQASQDITNYLNWYQQKPGKAPKLLIYDASNLETGVPSRFSGSGSGTDFTFTISSLQPEDIATYNCQQCENFPITFGQGTRLEIK
notes: DVD-Ig, outer AB400 / inner AB063
As for B5, the “GEO MEAN” value in assay [4] turned out to be 519; in assay [5], 20.6.

B6: DVD2334 (bispecific antibody)
VH: QVQLQESGPGLVKPSEILSLTCTVSGGSISSHYWSWVRQPPGKGLEWIGYIYYSGSTNYNPSLKSRVTISVDTSKNQFSLNLSSVTAADTAVYYCARIPNYYDRSGYYPGYWYFDLWGRGTLVTVSSASTKGPQVQLQQWGAGLLKPSETLSLTCAVYGGSFSGYYWSWIRQPPGKGLEWIGEINHSGSTNYNPSLKSRVTISVETSKNQFSLKLSSVTAADTAVYYCARDKWTWYFDLWGRGTLVTVSS
VL: QAVLTQPSSLSAPPGASASLTCTLRSGFNVDSYRISWYQQKPGSPPQYLLRYKSDSDKQQGSGVPSRFSGSKDASANAGILLISGLQSEDEADYYCMIWHSSAWVFGGGTKLTVLRQPKAAPDIEMTQSPDSLAVSLGERATINCRSSQSVLYSSSNRNYLAWYQQNPGQPPKLLIYWASTRESGVPDRFSGSGSGTDFTLTISSLQAEDVAVYYCQQYYSTPRTFGQGTKVEIK
notes: DVD-Ig, outer AB034 / inner AB062
As to B6, the binding result in assay [1] was “no binding (tested: 10-200 nM)”. Also, the equilibrium dissociation constant (Kd) in assay [2] came out at 4.9 nM.

B7: DVD2320 (bispecific antibody)
VH: EVQLVQSGGGLVKPGGSLRLSCAASGFTFSSYAMHWVRQAPGKGLEWVAVISYDGSNKYYADSVKGRFTISRDNSKNTLYLQMNSLRAEDTAVYYCARFSGWPNNYYYYGMDVWGQGTTVTVSSASTKGPEVQLLESGGGLVQPGGSLRLSCAASGFTFSHYVMAWVRQAPGKGLEWVSSISSSGGWTLYADSVKGRFTISRDNSKNTLYLQMNSLRAEDTAVYYCTRGLKMATIFDYWGQGTLVTVSS
VL: DVVMTQSPLSLPVTPGEPASISCRSSQSLLHSNGFNYVDWYLQKPGQSPHLLIYFGSYRASGVPDRFSGSGSGTDFTLKISRVEAEDVGVYYCMQALQTPPWTFGQGTKVEIRRTVAAPQSALTQPASVSGSPGQSITISCTGTSSDVGSYNVVSWYQQHPGKAPKLIIYEVSQRPSGVSNRFSGSKSGNTASLTISGLQTEDEADYYCCSYAGSSIFVIFGGGTKVTVL
notes: DVD-Ig, outer AB005 / inner AB116
B7: in assay [1], the binding result is recorded as “no binding (tested: 10-200 nM)”. Moreover, in assay [2], the Kd came to 25 nM, the koff is 0.00094 s⁻¹ and the kon amounted to 37000 M⁻¹ s⁻¹.

B8: AB067 (antibody, V domains shown)
VH: EVQLLESGGGLVQPGGSLRLSCAASGFTFSHYVMAWVRQAPGKGLEWVSSISSSGGWTLYADSVKGRFTISRDNSKNTLYLQMNSLRAEDTAVYYCTRGLKMATIFDYWGQGTLVTVSS
VL: QSALTQPASVSGSPGQSITISCTGTSSDVGSYNVVSWYQQHPGKAPKLIIYEVSQRPSGVSNRFSGSKSGNTASLTISGLQTEDEADYYCCSYAGSSIFVIFGGGTKVTVLG
notes: parent antibody
Consider B8, for which the “GEO MEAN” value in assay [3] worked out at 127.

B9: AB063 (antibody, V domains shown)
VH: EVQLVESGGGLVQPGGSLRLSCAASGFTFSIYSMNWVRQAPGKGLEWVSYISSSSSTIYYADSVKGRFTISRDNAKNSLYLQMNSLRDEDTAVYYCARDRGDFDAFDIWGQGTMVTVSS
VL: DIQMTQSPSSLSASVGDRVTITCQASQDITNYLNWYQQKPGKAPKLLIYDASNLETGVPSRFSGSGSGTDFTFTISSLQPEDIATYNCQQCENFPITFGQGTRLEIKR
notes: parent antibody
For the molecule B9, the “GEO MEAN” value in assay [3] turned out to be 128.
